{"source": "patent US20090074790", "proteins": {"B1": {"name": "purified recombinant constitutively active TβR-I kinase (protein)", "chain": "CHNRTVIHHRVPNEEDPSLDRPFISEGTTLKDLIYDMTTSGSGSGLPLLVQRTIARTIVLQESIGKGRFGEVWRGKWRGEEVAVKIFSSREERSWFREAEIYQTVMLRHENILGFIAADNKDNGTWTQLWLVSDYHEHGSLFDYLNRYTVTVEGMIKLALSTASGLAHLHMEIVGTQGKPAIAHRDLKSKNILVKKNGTCCIADLGLAVRHDSATDTIDIAPNHRVGTKRYMAPEVLDDSINMKHFESFKRADIYAMGLVFWEIARRCSIGGIHEDYQLPYYDLVPSDPSVEEMRKVVCEQKLRPNIPNRWQSCEALRVMAKIMRECWYANGAARLTALRIKKTLSQLSQQEGIKM"}}, "target": "recombinant GST-Smad2 fusion protein, phosphorylated in vitro by TβR-I kinase, Q15796", "sequence (Q15796 whole entry, the tested form may be a part)": "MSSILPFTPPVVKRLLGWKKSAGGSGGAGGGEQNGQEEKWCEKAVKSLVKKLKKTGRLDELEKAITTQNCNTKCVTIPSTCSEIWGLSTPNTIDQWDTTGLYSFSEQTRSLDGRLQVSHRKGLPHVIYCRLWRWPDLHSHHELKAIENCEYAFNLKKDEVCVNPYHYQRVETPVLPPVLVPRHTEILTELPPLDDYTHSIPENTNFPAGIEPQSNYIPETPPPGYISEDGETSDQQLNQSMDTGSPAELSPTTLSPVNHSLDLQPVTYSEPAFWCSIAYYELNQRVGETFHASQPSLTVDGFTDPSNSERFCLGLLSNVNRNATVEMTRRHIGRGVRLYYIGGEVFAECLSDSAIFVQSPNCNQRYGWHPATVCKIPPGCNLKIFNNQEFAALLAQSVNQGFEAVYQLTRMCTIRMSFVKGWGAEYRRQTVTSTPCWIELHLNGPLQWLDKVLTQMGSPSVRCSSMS", "data": [{"protein": "B1", "values": [{"measurement": "in vitro kinase assay, density of the pSmad2 band on Western blot", "value": "a band of approximately 58 kDa, the density of which is proportional to the amount of active enzyme"}]}]}
